# ± gives the half width of the 95% confidence interval.
# Tests used:
# [1] = folding stability dG unfold from trypsin proteolysis; higher = more stable
# How it was run: (§1)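 Unfolding free energy was derived, per protease or combined, by relating Bayesian-fitted K50 values from sequencing counts to a sequence-predicted unfolded-state K50 and a shared folded-state K50. The underlying digests exposed cysteine-free mini-proteins under 80 residues, in a PA-tagged cDNA display construct, to trypsin and chymotrypsin at 11 threefold-diluted concentrations and to a no-protease condition. A filter kept only designs with AlphaFold2 dimer inter-PAE above 15.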
# [2] = folding stability dG unfold from chymotrypsin proteolysis; higher = more stable
# How it was run: as §1
# [3] = folding stability dG unfold (combined trypsin and chymotrypsin); higher = more stable
# How it was run: as §1
Sequence,folding stability dG unfold [1] [kcal/mol],folding stability dG unfold [2] [kcal/mol],folding stability dG unfold [3] [kcal/mol]
SAGGFEFEFTNPDGKKIKVEIERHPEEGYIMLKIQYGGKPVETFPPGDEFEIPPDGIDAVIMFRLPPESAGG [r13_958_TrROS],2.88 ± 0.15,3.22 ± 0.12,2.91 ± 0.22
SAGGSKMPPGYKMIPIEIPFRTPEDLEQAINFAEELAREGFTIIDIDVEIPEGDNYRVEFHIMLPYSAGGSA [r2_350_TrROS],1.85 ± 0.056,2.6 ± 0.048,2.31 ± 0.1
SAGGSAGGSEVEITVTETEDTVTVTIRFKDTGKTVTITVPKDMTPEEVLARAKELLKKLGIEPSAGGSAGGS [r12_764_TrROS_Hall],3.91 ± 0.18,3.75 ± 0.16,3.88 ± 0.25
SAGGEPMKIRIEIYRMKRKKDPKDGKEKWDMRPVPEYEIPFPPGETLLDILDKLPLPPGYMIKRISIESAGG [r13_716_TrROS],2.28 ± 0.097,2.07 ± 0.12,2.13 ± 0.32
SAGGSAGGSAGKKIKVKIEVVYTDEDGNKHKVEMEKEIELKPGDKITLPPEAITRVEILPSAGGSAGGSAGG [r11_664_TrROS_Hall],0.832 ± 0.17,1.95 ± 0.12,1.57 ± 0.19
SAGGSAGGSMTFSSEEEAEAFIAQLPPDSEVEVEIKDPNTDKTTKYKIKVPPEQPVYSPKGVLSAGGSAGGS [r12_393_JUSTAS],0.308 ± 0.11,1.5 ± 0.063,1.2 ± 0.14
SAGGSAPDNKPKPVVREVEFWIMIPFKSAEQAKEIVEELMKFFGGLKVEILEVHPDGYAMIKITIYSAGGSA [r15_387_TrROS],3.68 ± 0.13,5.38 ± 0.072,5.15 ± 0.11
SAGGSAGGSAGGKTITLPPGMSEEELLEALKKAKPGDTITIEVDGKTYTLKVENGKITLTSAGGSAGGSAGG [r7_560_TrROS_Hall],2.31 ± 0.14,3.92 ± 0.12,3.56 ± 0.12
SEEEYLVIEVEFEVENPEEAREFAERLARELPLDEIESLEVEVEPREVFVEGEPVGPVYRFRVRAVVRPRSA [r9_605_TrMRF],2.62 ± 0.069,2.98 ± 0.048,2.77 ± 0.079
SAGGSAGGPLYRVLILLKKPNGEPLLLPLVAEDPEKALELAERLRKEYEEKGYELVAVEIYEFPSAGGSAGG [r6_869_TrMRF],4.37 ± 0.22,5.26 ± 0.13,5.22 ± 0.22
SAGGSAGGSAGGKTLTLVFKTKEEAEEAAKKLGFKKVEVKEFKNEDGEKYLVVKIELKPSAGGSAGGSAGGS [r10_494_TrROS_Hall],2.43 ± 0.058,3.1 ± 0.047,2.94 ± 0.22
SAGGSAGGSWEWITAEEALKRAREENPPGKPIEFHFEDPWYFTVRFDGEDPNDVTIEWVPLEKSAGGSAGGS [r12_648_TrROS],1.39 ± 0.087,1.47 ± 0.18,1.4 ± 0.2
SAGGSATIEEKIRNIAKEQGFPVTDVQVRRTPGKVYIMFQAKDPRMYYIEIDNDKIKIMPAEDIKPSAGGSA [r15_901_TrROS],1.14 ± 0.027,1.57 ± 0.064,1.36 ± 0.06
SAGGMKTLRLVVTVKVPKETGKPTVAEKLAEELAKLPGVEVVKVEVKRLENGTVVVTIEIKVPKELKPSAGG [r13_428_TrROS_Hall],3.13 ± 0.23,3.36 ± 0.061,3.18 ± 0.13
SDLDPNSTLVFSAPFPVSDPDALLEHAETVARELGPDVRVERVVFDPNTPNVAVVEVSVPGGTVTLVYSRSA [r9_1079_TrMRF],1.24 ± 0.017,1.36 ± 0.061,1.33 ± 0.062
SAGMFVKIKFKTADKTVEELVKKIKEETGIPENAKITVIAEKSEDEGFVVIIEFDEEEVRDKIKEIVGSAGG [r19_215_TrMRF],1.52 ± 0.026,1.35 ± 0.062,1.45 ± 0.087

Sequence,folding stability dG unfold [1] [kcal/mol],folding stability dG unfold [2] [kcal/mol],folding stability dG unfold [3] [kcal/mol]
SAGGSAGGSAGGPKVEVTVKGKPATVEWFPEEGKARVTVPDGRVYVLDLNGDKLEIKPLSAGGSAGGSAGGS [r10_724_TrMRF],0.258 ± 0.041,0.588 ± 0.13,0.512 ± 0.1
SAGEELIKKLAEELNLEVEIVSVEVDEETPTITVEVRVRNKDGEELTVRITITYDKETDEVHIEVEVLPSAG [r5_929_TrROS_Hall],3.91 ± 0.14,3.99 ± 0.26,4.08 ± 0.2
SAGGMKIKLKNGKVIEIKKKPGYIEIKIIDKKTKKVYTYTFKSKDGKISLEDLAKKLAELPNIKEIIPSAGG [r13_579_TrROS_Hall],3.3 ± 0.29,4.48 ± 0.15,4.27 ± 0.32
SAGGSAGGSAPPPPPPVYRIPIEITEIDPNGKITVTLPDLGEEITFPAPNVEVIPGDEFYIPSAGGSAGGSA [r18_89_TrROS],1.95 ± 0.11,1.67 ± 0.045,1.86 ± 0.16
SAGGSAGGSAGGMIIIIPTPKGTVALVIDENSDKPTLIEASPDEIPDLIEKGAKEVIILPSAGGSAGGSAGG [r7_266_TrMRF],0.363 ± 0.072,1.22 ± 0.052,0.932 ± 0.13
SATIEIPIKVNDRKFRISIERMPDGWIKIQIRDPNMPKDAVKDALREILGPGWKIDTDPETNTIYIPFKSAG [r14_370_TrROS],2.41 ± 0.061,2.77 ± 0.027,2.67 ± 0.059
SAGHPWMFRAKVEYDDGKPVGEREINIPGMPIDDIASDLFNEPGLRKVKIEFYWMDGEPQEIEIPVKPSAGG [r19_269_TrROS],0.801 ± 0.097,0.457 ± 0.28,0.689 ± 0.21
SAGKITLDGFTLDGEQTLTLTVEVPAPGGGTRTETFTATVTFDPETGTAHVPVTLPNGEELPFTFKVDASAG [r5_743_TrMRF],1.18 ± 0.024,1.52 ± 0.09,1.42 ± 0.075
SAGGSAGGSAGGAKKAIEEAIKAGYLPYEDPESGKIHFYFPTPDGTIHKLTLFVAPEEESAGGSAGGSAGGS [r10_1173_TrMRF],0.591 ± 0.03,0.711 ± 0.17,0.796 ± 0.14
SAGGSASLEELAEKLREKLPPEEAEKLRELLKELEEKGYEIVEIRIEVLPNGEKKVTIKLKVKKKPSAGGSA [r15_613_TrROS_Hall],3.34 ± 0.2,3.32 ± 0.26,3.41 ± 0.17
SAGGSAGGSAGGNPPDWKPVGEEEFPIPNPNGMQIKISVWTIRAPDDGKSASFIDIEMYPSAGGSAGGSAGG [r7_546_TrROS],1.19 ± 0.07,1.87 ± 0.072,1.58 ± 0.32
SAGGSAGGKIKLDGKEIVIVMSKEEKEKIAKELKEKFPNVKIKVVEGMSEEEAAKKADLVIVFDSAGGSAGG [r6_679_TrROS_Hall],-0.142 ± 0.18,0.0544 ± 0.23,-0.269 ± 0.39
SAGGSAMKVVFYGDEASQKEIAEKAKKEGIEYEAYPGSREEILAYVKENYPDVKMIVYPEGKEYLISAGGSA [r15_712_JUSTAS],0.0902 ± 0.072,0.094 ± 0.18,0.179 ± 0.073
SAGGSAGGGTVLAEEEEPETGLVRRLVRLPDGTLVESVSLVDPETGEVLSEEVLRETPLPPPGLSAGGSAGG [r6_928_JUSTAS],0.898 ± 0.08,1.41 ± 0.054,1.29 ± 0.12
SAGGSITSTTTLPDGTTVTTTVLPSGVTVVTTSTLDPATGTVSTTTTTLPPSSATTTTTTTTVPPLTSAGGS [r16_230_JUSTAS],3.18 ± 0.12,2.16 ± 0.029,2.58 ± 0.046
